Among the data in paper doi:10.1101/2025.02.27.640520 are stoichiometry N values, retold here.

In the assay the target is DeCLIC (Desulfofustis deltaproteobacterium). Description: cryo-EM structure.

A word on the stoichiometry N: it is the number of molecules, sites or subunits per partner or assembly. Regarding DeCLIC (natural protein), the stoichiometry N is 5.
